Data: article PMC10611751 (2023)
Like-named read-outs stand apart in the source and are kept apart here.

Columns and labels:
Test in all cases: ITC
[1] = target: E-cadherin CTD site-1, 2 to A (mouse, UniProt P09803 734-884, Y755A | Y756A | Y757A | Y829A | Y837A)
[2] = target: E-cadherin CTD site-2 to A (mouse, UniProt P09803 734-884, Y829A | Y837A)
[3] = target: E-cadherin CTD site-1, 3 to A (mouse, UniProt P09803 734-884, Y755A | Y756A | Y757A | Y861A | Y863A | W867A)
[4] = target: E-cadherin CTD site-1, 2, 3 to A (a total of 8 aromatic residue substitutions) (mouse, UniProt P09803 734-884, Y755A | Y756A | Y757A | Y829A | Y837A | Y861A | Y863A | W867A)
[5] = target: E-cadherin CTD site-1 to A (mouse, UniProt P09803 734-884, Y755A | Y756A | Y757A)
[6] = target: E-cadherin CTD site-2, 3 to A (mouse, UniProt P09803 734-884, Y829A | Y837A | Y861A | Y863A | W867A)
[7] = target: E-cadherin CTD site-3 to A (mouse, UniProt P09803 734-884, Y861A | Y863A | W867A)
[8] = target: T1, Ankyrin-G 24 ANK repeats (residues 38-855) (UniProt O70511 38-855)
T1 chain: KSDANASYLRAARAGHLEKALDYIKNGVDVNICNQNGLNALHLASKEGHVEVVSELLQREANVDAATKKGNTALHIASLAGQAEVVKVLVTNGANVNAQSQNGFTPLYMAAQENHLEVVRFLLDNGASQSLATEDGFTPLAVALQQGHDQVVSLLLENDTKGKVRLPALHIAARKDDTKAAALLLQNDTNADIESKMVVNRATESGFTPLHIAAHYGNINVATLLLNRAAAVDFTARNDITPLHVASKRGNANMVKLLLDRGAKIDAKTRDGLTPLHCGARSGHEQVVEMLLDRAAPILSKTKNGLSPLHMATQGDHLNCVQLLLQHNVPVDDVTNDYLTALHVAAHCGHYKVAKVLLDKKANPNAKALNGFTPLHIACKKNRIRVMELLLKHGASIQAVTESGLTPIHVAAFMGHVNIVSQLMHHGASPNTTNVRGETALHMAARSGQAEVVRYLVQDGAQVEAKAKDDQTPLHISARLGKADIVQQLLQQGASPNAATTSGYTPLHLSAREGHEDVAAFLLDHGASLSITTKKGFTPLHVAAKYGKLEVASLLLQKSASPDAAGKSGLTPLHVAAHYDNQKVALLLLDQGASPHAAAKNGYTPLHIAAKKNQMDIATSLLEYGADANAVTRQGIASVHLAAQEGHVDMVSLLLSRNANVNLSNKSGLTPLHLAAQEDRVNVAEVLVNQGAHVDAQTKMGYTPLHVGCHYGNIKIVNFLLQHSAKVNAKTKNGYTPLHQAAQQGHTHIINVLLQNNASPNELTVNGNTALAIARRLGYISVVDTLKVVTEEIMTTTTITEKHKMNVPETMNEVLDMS

[9] = target: T1, Ankyrin-G 24 ANK repeats (residues …)
AnkG R6-24 = target: T2, AnkG R6-24 (Rattus norvegicus)
T2 chain: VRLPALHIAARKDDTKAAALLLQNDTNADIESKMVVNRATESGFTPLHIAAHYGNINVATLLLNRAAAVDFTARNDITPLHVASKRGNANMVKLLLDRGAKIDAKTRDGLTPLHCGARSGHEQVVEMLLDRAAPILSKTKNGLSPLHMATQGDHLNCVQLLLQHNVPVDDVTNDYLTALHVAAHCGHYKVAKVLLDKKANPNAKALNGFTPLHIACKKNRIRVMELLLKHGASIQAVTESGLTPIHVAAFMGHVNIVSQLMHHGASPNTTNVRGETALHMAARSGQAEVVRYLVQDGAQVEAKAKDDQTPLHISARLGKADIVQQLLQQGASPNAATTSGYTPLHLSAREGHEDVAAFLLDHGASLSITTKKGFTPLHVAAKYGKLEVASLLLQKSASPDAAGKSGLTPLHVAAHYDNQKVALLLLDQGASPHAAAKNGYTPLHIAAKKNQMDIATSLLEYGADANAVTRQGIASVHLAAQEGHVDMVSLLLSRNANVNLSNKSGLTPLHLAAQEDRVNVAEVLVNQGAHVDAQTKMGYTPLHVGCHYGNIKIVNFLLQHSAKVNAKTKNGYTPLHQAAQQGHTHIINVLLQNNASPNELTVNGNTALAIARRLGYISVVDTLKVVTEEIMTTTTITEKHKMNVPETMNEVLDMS

[10] = target: T3, Ankyrin-G ANK repeats 8-14 (UniProt O70511 275-500)
T3 chain: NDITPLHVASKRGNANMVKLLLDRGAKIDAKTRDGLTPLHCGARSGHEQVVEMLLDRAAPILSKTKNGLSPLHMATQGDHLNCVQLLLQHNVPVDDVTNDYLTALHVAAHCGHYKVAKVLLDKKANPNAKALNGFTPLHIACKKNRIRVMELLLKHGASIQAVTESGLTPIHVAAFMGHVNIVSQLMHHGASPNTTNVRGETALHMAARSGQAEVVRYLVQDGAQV

[11] = target: T1, Ankyrin-G 24 ANK repeats (residues …)

B1: full-length β-catenin 1-781 (natural protein)
chain: MATQADLMELDMAMEPDRKAAVSHWQQQSYLDSGIHSGATTTAPSLSGKGNPEEEDVDTSQVLYEWEQGFSQSFTQEQVADIDGQYAMTRAQRVRAAMFPETLDEGMQIPSTQFDAAHPTNVQRLAEPSQMLKHAVVNLINYQDDAELATRAIPELTKLLNDEDQVVVNKAAVMVHQLSKKEASRHAIMRSPQMVSAIVRTMQNTNDVETARCTAGTLHNLSHHREGLLAIFKSGGIPALVKMLGSPVDSVLFYAITTLHNLLLHQEGAKMAVRLAGGLQKMVALLNKTNVKFLAITTDCLQILAYGNQESKLIILASGGPQALVNIMRTYTYEKLLWTTSRVLKVLSVCSSNKPAIVEAGGMQALGLHLTDPSQRLVQNCLWTLRNLSDAATKQEGMEGLLGTLVQLLGSDDINVVTCAAGILSNLTCNNYKNKMMVCQVGGIEALVRTVLRAGDREDITEPAICALRHLTSRHQEAEMAQNAVRLHYGLPVVVKLLHPPSHWPLIKATVGLIRNLALCPANHAPLREQGAIPRLVQLLVRAHQDTQRRTSMGGTQQQFVEGVRMEEIVEGCTGALHILARDVHNRIVIRGLNTIPLFVQLLYSPIENIQRVAAGVLCELAQDKEAAEAIEAEGATAPLTELLHSRNEGVATYAAAVLFRMSEDKPQDYKKRLSVELTSSLFRTEPMAWNETADLGLDIGAQGEALGYRQDDPSYRSFHSGGYGQDALGMDPMMEHEMGGHHPGADYPVDGLPDLGHAQDLMDGLPPGDSNQLAWFDTDL
Question: Which Kd [1] does the source give for B1 here?
Answer: 3600 nM

Question: What about the Kd [2] of the same binder?
Answer: 4800 nM

Question: What about the Kd [3] of the same binder?
Answer: 98 nM

Question: What about the Kd [4] of the same binder?
Answer: 8100 nM

Question: And the Kd [5]?
Answer: 56 nM

Question: What about the Kd [6] of the same binder?
Answer: 1400 nM

Question: What about the Kd [7] of the same binder?
Answer: 110 nM

B2: E-cadherin CTD–β-catenin complex (complex)
chain 1: not shown
chain 2: B1 chain
Question: For B2, which Kd [8] is on record?
Answer: 600 nM

B3: E-cadherin 776-884–β-catenin complex (protein)
chain 1: not shown
chain 2: B1 chain
Question: Which Kd [8] does the source give for B3 here?
Answer: 1200 nM

B4: p120 catenin 324-938 (domain or fragment)
chain: MIGEEVPPDQYYWAPLAQHERGSLASLDSLRKGMPPPSNWRQPELPEVIAMLGFRLDAVKSNAAAYLQHLCYRNDKVKTDVRKLKGIPILVGLLDHPKKEVHLGACGALKNISFGRDQDNKIAIKNCDGVPALVRLLRKARDMDLTEVITGTLWNLSSHDSIKMEIVDHALHALTDEVIIPHSGWEREPNEDCKPRHIEWESVLTNTAGCLRNVSSERSEARRKLRECDGLVDALIFIVQAEIGQKDSDSKLVENCVCLLRNLSYQVHREIPQAERYQEALPTVANSTGPHAASCFGAKKGKDEWFSRGKKPTEDPANDTVDFPKRTSPARGYELLFQPEVVRIYISLLKESKTPAILEASAGAIQNLCAGRWTYGRYIRSALRQEKALSAIAELLTSEHERVVKAASGALRNLAVDARNKELIGKHAIPNLVKNLPGGQQNSSWNFSEDTVVSILNTINEVIAENLEAAKKLRETQGIEKLVLINKSGNRSEKEVRAAALVLQTIWGYKELRKPLEKEGWKKSDFQVNLNNASRSQSSHSYDDSTLPLIDRNQKSDKKPDREEIPMSNMGSNTKSLDNNYSTLNERGDHNRTLDRSGDLGDMEPLKGAPLMQKI
Question: Which results are given for B4?
Answer: Kd [1]: > 70000 nM; Kd [2]: 2800 nM; Kd [3]: > 30000 nM; Kd [4]: > 50000 nM; Kd [5]: > 50000 nM; Kd [6]: 1800 nM; Kd [7]: 2900 nM

B5: E-cadherin 734-838 (protein)
chain: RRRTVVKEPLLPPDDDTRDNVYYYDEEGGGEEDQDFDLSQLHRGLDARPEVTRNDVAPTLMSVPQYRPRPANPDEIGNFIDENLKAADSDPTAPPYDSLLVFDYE
Question: B5 was tested. Which Kd [9] did it give?
Answer: 1100 nM

Question: RDNVYYYDEEGGGEEDQDFDLSQLH (domain or fragment) [E-cadherin 751-775 (site-1)] was tested. Which Kd (AnkG R6-24) did it give?
Answer: 1800 nM

Question: And the Kd [10]?
Answer: 8900 nM

Question: Which Kd [11] does the source give for YYADEEGGGEEDQDFD (domain or fragment) [E-cadherin site-1 Y757A] here?
Answer: 2200 nM

Question: For YAADEEGGGEEDQDFD [E-cadherin 755-770 Y756A,Y757A], which Kd [11] is on record?
Answer: 7100 nM

Question: Which Kd [11] does the source give for ESDQDQDADALNEWGN [E-cadherin 854-869 Y861A,Y863A] here?
Answer: 5800 nM

Question: Which Kd [11] does the source give for PADSLLVFDYEGSGS (domain or fragment) [E-cadherin site-2 Y829A] here?
Answer: 1700 nM

Question: With ESDQDQDADYLNEWGN (domain or fragment) [E-cadherin site-3 Y861A] as the binder, how does the Kd [11] read?
Answer: 3200 nM

B6: E-cadherin 734-775 (domain or fragment)
chain: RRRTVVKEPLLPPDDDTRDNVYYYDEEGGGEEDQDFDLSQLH
Question: B6 was tested. Which Kd [9] did it give?
Answer: 1500 nM

Question: Which Kd [11] does the source give for ESDQDQDYDYLNEAGN (domain or fragment) [E-cadherin site-3 W867A] here?
Answer: 3900 nM

Question: How did the Kd [11] turn out when ESDQDQDYDALNEWGN (domain or fragment) [E-cadherin site-3 Y863A] was run?
Answer: 3900 nM

Question: With AYYDEEGGGEEDQDFD (domain or fragment) [E-cadherin site-1 Y755A] as the binder, how does the Kd [11] read?
Answer: 5000 nM

Question: Which Kd [11] does the source give for AYADEEGGGEEDQDFD [E-cadherin 755-770 Y755A,Y757A] here?
Answer: 4100 nM

Question: With YAYDEEGGGEEDQDFD (domain or fragment) [E-cadherin site-1 Y756A] as the binder, how does the Kd [11] read?
Answer: 2200 nM

Question: For AAYDEEGGGEEDQDFD [E-cadherin 755-770 Y755A,Y756A], which Kd [11] is on record?
Answer: 4200 nM

B7: E-cadherin 776-884 (domain or fragment)
chain: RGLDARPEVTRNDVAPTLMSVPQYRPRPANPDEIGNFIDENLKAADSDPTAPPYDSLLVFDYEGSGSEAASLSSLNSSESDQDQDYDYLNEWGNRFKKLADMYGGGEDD
Question: How did the Kd [9] turn out when B7 was run?
Answer: 800 nM

Question: Which Kd [11] does the source give for PYDSLLVFDAEGSGS (domain or fragment) [E-cadherin site-2 Y837A] here?
Answer: 9500 nM

B8: E-cadherin 828-869 (containing both site-2 and site-3) (domain or fragment)
chain: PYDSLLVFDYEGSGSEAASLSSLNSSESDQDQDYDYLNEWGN
Question: What does the source list for B8?
Answer: Kd (AnkG R6-24): 1000 nM; Kd [10]: 7100 nM
